From patent publication US20030157685A1 (GENERAL HOSPITAL CORPORATION A MASSACHUSETTS, published 2003)

What was measured:
[1] = target: T1, LexA-N-myc bait (carboxyl-terminal 224 amino acids of human N-myc) (human, UniProt P0A7C2 1-202; P04198 241-464); test: yeast two-hybrid
T1 construct: also called PL-LexA-N-myc
T1 sequence (looked up): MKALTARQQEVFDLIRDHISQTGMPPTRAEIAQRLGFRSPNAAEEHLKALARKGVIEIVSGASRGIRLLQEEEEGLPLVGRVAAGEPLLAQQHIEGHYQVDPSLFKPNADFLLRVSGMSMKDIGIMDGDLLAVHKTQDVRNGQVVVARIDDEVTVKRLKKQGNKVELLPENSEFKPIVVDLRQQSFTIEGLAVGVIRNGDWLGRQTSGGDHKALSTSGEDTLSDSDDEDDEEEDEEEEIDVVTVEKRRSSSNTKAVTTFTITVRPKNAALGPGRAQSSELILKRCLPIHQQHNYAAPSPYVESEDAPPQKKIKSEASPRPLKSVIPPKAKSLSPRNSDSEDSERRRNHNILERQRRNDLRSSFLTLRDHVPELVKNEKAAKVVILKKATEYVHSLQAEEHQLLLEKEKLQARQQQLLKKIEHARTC

[2] = target: T2, LexA-C-myc bait (carboxy-terminal 176 amino acids of human C-myc) (human, UniProt P0A7C2 1-202; P01106 279-454); test: yeast two-hybrid
T2 construct: also called Lex-C-myc

binding result [1]: binds
binding result [2]: binds
B1: full length Nmi fused in-frame with the transcriptional activator B42 in JG4-5 vector (other, not shown: small tags and cut ends)
chain: MEADKDDTQQILKEHSPDEFIKDEQNKGLIDEITKKNIQLKKEIQKLETELQEATKEFQIKEDIPETKMKFLSVETPENDSQLSNISCSFQVSSKVPYEIQKGQALITFEKEEVAQNVVSMSKHHVQIKDVNLEVTAKPVPLNSGVRFQVYVEVSKMKINVTEIPDTLREDQMRDKLELSFSKFRNGGGEVDRVDYDRQSGSAVITFVEIGVADKILKKKEYPLYINQTCHRVTVSPYTEIHLKKYQIFSGTSKRTVLLTGMEGIQMDEEIVEDLINIHFQRAKNGGGEVDVVKCSLGQPHIAYFEE
notes: Yeast two-hybrid prey; the 307 amino acid protein is meant
